Measured values published in the supplement of paper PMC9112550, “Optimization of the antimicrobial peptide Bac7 by deep mutational scanning” (BMC Biology, 2022).

Test system: Escherichia coli TOP10
Test: shrunken log2 fold change of peptide-encoding DNA abundance (4.5 h post-induction vs induction); higher = less antimicrobial activity (less host growth inhibition)
Conditions: time post-induction: 4.5 h; library: site-saturation at positions 5, 18, 19, 20
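Further: peptides expressed intracellularly from a pBAD plasmid library in pooled LB shake-flask culture, induced with 0.3% L-arabinose, DNA abundance read by NGS, three biological replicates, DESeq2 with apeglm shrinkage.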

| Sequence | shrunken log2 fold change |
| --- | --- |
| RRIRFRPPRLPRPRPRPPYMPRP | -0.43 |
| RRIRFRPPRLPRPRPRPPYYPRP | -0.464 |
| RRIRFRPPRLPRPRPRPQAIPRP | 0.043 |
| RRIRFRPPRLPRPRPRPQDIPRP | -0.0714 |
| RRIRFRPPRLPRPRPRPQDLPRP | -0.0337 |
| RRIRFRPPRLPRPRPRPQDSPRP | -0.113 |
| RRIRFRPPRLPRPRPRPQFGPRP | -0.0484 |
| RRIRFRPPRLPRPRPRPQGQPRP | -0.103 |
| RRIRFRPPRLPRPRPRPQGRPRP | 0.19 |
| RRIRFRPPRLPRPRPRPQHGPRP | -0.126 |
| RRIRFRPPRLPRPRPRPQKDPRP | -0.376 |
| RRIRFRPPRLPRPRPRPQLLPRP | 0.0217 |
| RRIRFRPPRLPRPRPRPQLRPRP | 0.0318 |
| RRIRFRPPRLPRPRPRPQMAPRP | 0.168 |
| RRIRFRPPRLPRPRPRPQNQPRP | -0.485 |
| RRIRFRPPRLPRPRPRPQNWPRP | -0.148 |
| RRIRFRPPRLPRPRPRPQPDPRP | 0.254 |
| RRIRFRPPRLPRPRPRPQQRPRP | 0.061 |
| RRIRFRPPRLPRPRPRPQQSPRP | -0.0219 |
| RRIRFRPPRLPRPRPRPQSDPRP | 0.0151 |
| RRIRFRPPRLPRPRPRPQSYPRP | -0.111 |
| RRIRFRPPRLPRPRPRPQVVPRP | -0.152 |
| RRIRFRPPRLPRPRPRPQYTPRP | -0.616 |
| RRIRFRPPRLPRPRPRPRAHPRP | 0.00718 |
| RRIRFRPPRLPRPRPRPRCSPRP | 0.717 |

| Sequence | shrunken log2 fold change |
| --- | --- |
| RRIRFRPPRLPRPRPRPRECPRP | 0.277 |
| RRIRFRPPRLPRPRPRPREPPRP | 0.208 |
| RRIRFRPPRLPRPRPRPRGGPRP | 0.9 |
| RRIRFRPPRLPRPRPRPRGMPRP | 0.2 |
| RRIRFRPPRLPRPRPRPRHMPRP | -0.124 |
| RRIRFRPPRLPRPRPRPRHRPRP | 0.195 |
| RRIRFRPPRLPRPRPRPRLQPRP | 0.221 |
| RRIRFRPPRLPRPRPRPRLWPRP | 0.497 |
| RRIRFRPPRLPRPRPRPRNHPRP | -0.132 |
| RRIRFRPPRLPRPRPRPRQPPRP | 0.68 |
| RRIRFRPPRLPRPRPRPRTRPRP | 0.244 |
| RRIRFRPPRLPRPRPRPRVAPRP | 0.439 |
| RRIRFRPPRLPRPRPRPRWDPRP | 0.284 |
| RRIRFRPPRLPRPRPRPRWRPRP | 0.382 |
| RRIRFRPPRLPRPRPRPRWTPRP | 1.19 |
| RRIRFRPPRLPRPRPRPRYCPRP | -0.647 |
| RRIRFRPPRLPRPRPRPRYSPRP | -0.736 |
| RRIRFRPPRLPRPRPRPSALPRP | 0.0201 |
| RRIRFRPPRLPRPRPRPSDTPRP | -0.308 |
| RRIRFRPPRLPRPRPRPSEGPRP | 0.0716 |
| RRIRFRPPRLPRPRPRPSFSPRP | -0.702 |
| RRIRFRPPRLPRPRPRPSFYPRP | -0.514 |
| RRIRFRPPRLPRPRPRPSGAPRP | 0.103 |
| RRIRFRPPRLPRPRPRPSGTPRP | -0.0628 |
| RRIRFRPPRLPRPRPRPSHRPRP | -0.214 |

| Sequence | shrunken log2 fold change |
| --- | --- |
| RRIRFRPPRLPRPRPRPSIFPRP | -0.579 |
| RRIRFRPPRLPRPRPRPSIGPRP | -0.139 |
| RRIRFRPPRLPRPRPRPSIKPRP | -0.42 |
| RRIRFRPPRLPRPRPRPSIRPRP | -0.288 |
| RRIRFRPPRLPRPRPRPSISPRP | -1.18 |
| RRIRFRPPRLPRPRPRPSKDPRP | -0.347 |
| RRIRFRPPRLPRPRPRPSKYPRP | -0.868 |
| RRIRFRPPRLPRPRPRPSMCPRP | -0.714 |
| RRIRFRPPRLPRPRPRPSMYPRP | -0.432 |
| RRIRFRPPRLPRPRPRPSNCPRP | -0.529 |
| RRIRFRPPRLPRPRPRPSNQPRP | 0.0631 |
| RRIRFRPPRLPRPRPRPSPHPRP | 0.0339 |
| RRIRFRPPRLPRPRPRPSPMPRP | 1.17 |
| RRIRFRPPRLPRPRPRPSPNPRP | -0.399 |
| RRIRFRPPRLPRPRPRPSRAPRP | 0.352 |
| RRIRFRPPRLPRPRPRPSRHPRP | -0.162 |
| RRIRFRPPRLPRPRPRPSRMPRP | 0.311 |
| RRIRFRPPRLPRPRPRPSRNPRP | -0.346 |
| RRIRFRPPRLPRPRPRPSRQPRP | -0.0117 |
| RRIRFRPPRLPRPRPRPSRYPRP | -0.0764 |
| RRIRFRPPRLPRPRPRPSTKPRP | 0.0858 |
| RRIRFRPPRLPRPRPRPSVHPRP | -0.233 |
| RRIRFRPPRLPRPRPRPSVWPRP | -0.229 |
| RRIRFRPPRLPRPRPRPSWSPRP | -0.557 |
| RRIRFRPPRLPRPRPRPTDFPRP | -0.302 |

| Sequence | shrunken log2 fold change |
| --- | --- |
| RRIRFRPPRLPRPRPRPTFEPRP | -0.00113 |
| RRIRFRPPRLPRPRPRPTFPPRP | -0.0193 |
| RRIRFRPPRLPRPRPRPTFRPRP | -0.0216 |
| RRIRFRPPRLPRPRPRPTIYPRP | -0.689 |
| RRIRFRPPRLPRPRPRPTKLPRP | -0.494 |
| RRIRFRPPRLPRPRPRPTLLPRP | -0.0998 |
| RRIRFRPPRLPRPRPRPTMIPRP | -0.941 |
| RRIRFRPPRLPRPRPRPTMLPRP | -0.423 |
| RRIRFRPPRLPRPRPRPTNCPRP | 0.0341 |
| RRIRFRPPRLPRPRPRPTPMPRP | 0.178 |
| RRIRFRPPRLPRPRPRPTPNPRP | 0.296 |
| RRIRFRPPRLPRPRPRPTRMPRP | 0.762 |
| RRIRFRPPRLPRPRPRPTTAPRP | 0.297 |
| RRIRFRPPRLPRPRPRPTTMPRP | -0.0267 |
| RRIRFRPPRLPRPRPRPTTYPRP | -0.608 |
| RRIRFRPPRLPRPRPRPTWFPRP | 0.0971 |
| RRIRFRPPRLPRPRPRPTWRPRP | 0.587 |
| RRIRFRPPRLPRPRPRPTYKPRP | -0.42 |
| RRIRFRPPRLPRPRPRPVAGPRP | 0.128 |
| RRIRFRPPRLPRPRPRPVAIPRP | -0.0527 |
| RRIRFRPPRLPRPRPRPVCNPRP | -0.0727 |
| RRIRFRPPRLPRPRPRPVEDPRP | -0.264 |
| RRIRFRPPRLPRPRPRPVERPRP | 0.0308 |
| RRIRFRPPRLPRPRPRPVGPPRP | 0.405 |
| RRIRFRPPRLPRPRPRPVLLPRP | -0.209 |

| Sequence | shrunken log2 fold change |
| --- | --- |
| RRIRFRPPRLPRPRPRPVMAPRP | -0.271 |
| RRIRFRPPRLPRPRPRPVMNPRP | -0.548 |
| RRIRFRPPRLPRPRPRPVPHPRP | -0.342 |
| RRIRFRPPRLPRPRPRPVPWPRP | 0.0558 |
| RRIRFRPPRLPRPRPRPVPYPRP | -0.693 |
| RRIRFRPPRLPRPRPRPVQGPRP | -0.169 |
| RRIRFRPPRLPRPRPRPVRHPRP | 0.0636 |
| RRIRFRPPRLPRPRPRPVTAPRP | -0.0836 |
| RRIRFRPPRLPRPRPRPVTYPRP | -0.557 |
| RRIRFRPPRLPRPRPRPVYRPRP | -0.285 |
| RRIRFRPPRLPRPRPRPVYWPRP | -0.195 |
| RRIRFRPPRLPRPRPRPWCVPRP | -0.384 |
| RRIRFRPPRLPRPRPRPWDDPRP | -0.636 |
| RRIRFRPPRLPRPRPRPWDQPRP | 0.0971 |
| RRIRFRPPRLPRPRPRPWFIPRP | -0.175 |
| RRIRFRPPRLPRPRPRPWFLPRP | -1.15 |
| RRIRFRPPRLPRPRPRPWGIPRP | -0.0116 |
| RRIRFRPPRLPRPRPRPWGRPRP | 0.0219 |
| RRIRFRPPRLPRPRPRPWGSPRP | -0.0689 |
| RRIRFRPPRLPRPRPRPWICPRP | -1.05 |
| RRIRFRPPRLPRPRPRPWKLPRP | -0.0164 |
| RRIRFRPPRLPRPRPRPWLHPRP | 0.0608 |
| RRIRFRPPRLPRPRPRPWLKPRP | -0.111 |
| RRIRFRPPRLPRPRPRPWLWPRP | -0.052 |
| RRIRFRPPRLPRPRPRPWMIPRP | -0.00776 |

| Sequence | shrunken log2 fold change |
| --- | --- |
| RRIRFRPPRLPRPRPRPWMTPRP | 0.0687 |
| RRIRFRPPRLPRPRPRPWMWPRP | -0.0253 |
| RRIRFRPPRLPRPRPRPWNFPRP | -0.0389 |
| RRIRFRPPRLPRPRPRPWNRPRP | -0.216 |
| RRIRFRPPRLPRPRPRPWQSPRP | 0.146 |
| RRIRFRPPRLPRPRPRPWRAPRP | 0.0757 |
| RRIRFRPPRLPRPRPRPWRQPRP | -0.103 |
| RRIRFRPPRLPRPRPRPWTDPRP | -0.345 |
| RRIRFRPPRLPRPRPRPWTPPRP | -0.26 |
| RRIRFRPPRLPRPRPRPYCKPRP | -0.243 |
| RRIRFRPPRLPRPRPRPYEMPRP | -0.412 |
| RRIRFRPPRLPRPRPRPYGWPRP | -0.0451 |
| RRIRFRPPRLPRPRPRPYHTPRP | -0.0117 |
| RRIRFRPPRLPRPRPRPYIMPRP | -1.09 |
| RRIRFRPPRLPRPRPRPYKNPRP | -0.957 |
| RRIRFRPPRLPRPRPRPYLVPRP | -0.423 |
| RRIRFRPPRLPRPRPRPYMEPRP | -0.0116 |
| RRIRFRPPRLPRPRPRPYPAPRP | -0.512 |
| RRIRFRPPRLPRPRPRPYPDPRP | 0.0764 |
| RRIRFRPPRLPRPRPRPYPEPRP | -0.488 |
| RRIRFRPPRLPRPRPRPYQPPRP | -0.269 |
| RRIRFRPPRLPRPRPRPYRHPRP | -1.08 |
| RRIRFRPPRLPRPRPRPYRYPRP | 0.0548 |
| RRIRFRPPRLPRPRPRPYSWPRP | -0.159 |
| RRIRFRPPRLPRPRPRPYTNPRP | -1.17 |
